According to patent publication EP4660205A1 (Beijing Wisdomab Biotechnology Co., Ltd, dated 2025):
Like-named read-outs stand apart in the source and are kept apart here.

Legend:
[1] = biological target: T1, hIL-1R3-His (extracellular domain of human IL-1R3 with C-terminal His tag) (human (homo sapiens), UniProt Q9NPH3 21-359); test: SPR (Biacore T200), antibody captured by anti-human Fc, hIL-1R3-His as analyte, 1:1 model
T1 sequence: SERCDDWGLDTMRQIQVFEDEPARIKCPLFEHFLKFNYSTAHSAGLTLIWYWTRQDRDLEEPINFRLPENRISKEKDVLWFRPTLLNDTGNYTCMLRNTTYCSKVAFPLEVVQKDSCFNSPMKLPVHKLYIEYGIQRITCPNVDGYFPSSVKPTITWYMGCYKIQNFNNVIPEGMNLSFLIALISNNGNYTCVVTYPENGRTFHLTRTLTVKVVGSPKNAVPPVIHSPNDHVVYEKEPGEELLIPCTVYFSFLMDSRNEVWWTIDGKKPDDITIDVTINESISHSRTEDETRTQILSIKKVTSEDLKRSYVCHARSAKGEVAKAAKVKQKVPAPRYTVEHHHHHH

[2] = biological target: T1, hIL-1R3-His (extracellular domain of …); test: as above; remark: listed apart in the source
[3] = biological target: T2, human IL-36R on the cell surface (HEK-Blue IL-36 cells, HaCAT cells, human CD14+ monocytes) (human, UniProt Q9HB29 20-575); test: cell-based or functional assay
T2 sequence (looked up): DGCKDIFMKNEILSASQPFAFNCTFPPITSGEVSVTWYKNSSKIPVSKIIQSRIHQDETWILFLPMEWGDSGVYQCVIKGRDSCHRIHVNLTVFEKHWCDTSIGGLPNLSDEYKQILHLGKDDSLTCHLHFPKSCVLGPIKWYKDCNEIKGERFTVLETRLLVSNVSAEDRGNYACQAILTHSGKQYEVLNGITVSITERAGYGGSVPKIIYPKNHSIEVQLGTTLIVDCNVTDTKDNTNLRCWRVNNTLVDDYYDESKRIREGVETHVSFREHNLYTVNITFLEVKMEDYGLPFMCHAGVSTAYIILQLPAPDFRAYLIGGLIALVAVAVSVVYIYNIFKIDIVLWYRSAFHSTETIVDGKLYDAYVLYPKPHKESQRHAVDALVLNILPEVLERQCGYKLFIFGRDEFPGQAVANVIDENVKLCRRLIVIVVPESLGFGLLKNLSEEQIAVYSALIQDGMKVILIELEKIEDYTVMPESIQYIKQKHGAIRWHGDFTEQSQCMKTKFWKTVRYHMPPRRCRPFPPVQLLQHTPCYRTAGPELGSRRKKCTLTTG

[4] = biological target: T1, hIL-1R3-His (extracellular domain of …); test: SPR (Biacore T200), antibody captured by anti-human Fc, hIL-1R3-His as analyte, 1:1 model; remark: listed apart in the source
[5] = biological target: T2, human IL-36R on the cell surface …; test: cell-based or functional assay; remark: listed apart in the source
[6] = biological target: T2, human IL-36R on the cell surface …; test: cell-based or functional assay; remark: listed apart in the source
[7] = biological target: T3, hIL-36R-His (extracellular domain of human IL-36R with C-terminal His tag) (human (homo sapiens), UniProt Q9HB29 20-335); test: SPR (Biacore T200), antibody captured by anti-human Fc, hIL-36R-His as analyte, 1:1 model
T3 construct: also called human hIL-36R-His
T3 sequence: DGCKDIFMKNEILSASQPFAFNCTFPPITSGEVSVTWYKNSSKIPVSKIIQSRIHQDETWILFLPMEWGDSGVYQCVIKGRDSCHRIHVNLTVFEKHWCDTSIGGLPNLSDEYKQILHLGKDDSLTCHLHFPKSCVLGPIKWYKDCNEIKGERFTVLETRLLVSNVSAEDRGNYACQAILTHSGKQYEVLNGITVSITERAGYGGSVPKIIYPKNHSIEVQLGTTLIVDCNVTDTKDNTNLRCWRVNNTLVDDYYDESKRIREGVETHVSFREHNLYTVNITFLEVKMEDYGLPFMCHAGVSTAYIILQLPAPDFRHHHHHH

[8] = biological target: T3, hIL-36R-His (extracellular domain of …); test: as above; remark: listed apart in the source
[9] = biological target: T2, human IL-36R on the cell surface …; test: cell-based or functional assay; remark: listed apart in the source
[10] = biological target: T3, hIL-36R-His (extracellular domain of …); test: SPR (Biacore T200), antibody captured by anti-human Fc, hIL-36R-His as analyte, 1:1 model; remark: listed apart in the source

B1: R1B9 (mouse anti-human IL-1R3 monoclonal antibody) (antibody, V domains shown)
VH: EVKLVESGGGLVKPGGSLKLSCAASGFTFSSYAMSWVRQSPEKRLEWVAEISRGGSHTYYPDTVTGRFTISRDNAKNTLYLEMTSLRSEDTALYYCARSYGNYPFDYWGQGTTLTVSS
VL: DIVMTQSPAIMSASPGEKVTMTCSASSSVSYMYWYQQKPGSSPRLLIYDTSNLASGVPVRFSGSGSGTSYSLTISRMEAEDAATYYCQQWSSYPLTFGAGTKLEIK
notes: Found as a mouse scFv on phage; it was captured by anti-human IgG (Fc) in SPR and detected with anti-human IgG-FITC, which points to a human Fc; also called mouse IL-1R3 monoclonal antibody R1B9; parent R1B9
For B1, the Kd [1] was 1.24 nM, the koff [1] was 9.32e-05 s⁻¹ and the kon [1] was 75000 M⁻¹ s⁻¹. For the same binder, the Kd [2] was 1.07 nM, the koff [2] was 0.00011 s⁻¹ and the kon [2] was 103000 M⁻¹ s⁻¹.

B2: Common light chain bispecific antibody (R72B7VH/R1B9VH-h1+L36E9VK) (bispecific antibody, human IgG1, kappa)
heavy 1: QVQLVQSGAEVKKPGASVKVSCKASGYSFTSSWIHWVKQAPGQGLEWMGEINPGNVRSNYNENFRNKVTMTVDTSISTAYMELSRLRSDDTAVYYCTVINYGEPYFASWGQGTLVTVSSASTKGPSVFPLAPSSKSTSEGTAALGCLVKDYFPEPVTVSWNSGALTSGVHTFPAVLQSSGLYSLSSVVTVPSSSLGTQTYICNVDHKPSNTKVDKTVEPKSCDKTHTCPPCPAPEFEGGPSVFLFPPKPKDTLMISRTPEVTCVVVDVSQEDPEVQFNWYVDGVEVHNAKTKPREEQYNSTYRVVSVLTVLHQDWLNGKEYKCKVSNKALPASIEKTISKAKGQPREPQVCTLPPSQEEMTKNQVSLSCAVKGFYPSDIAVEWESNGQPENNYKTTPPVLDSDGSFFLVSKLTVDKSRWQEGNVFSCSVMHEALHNHYTQKSLSLSPGK
heavy 2: EVQLVESGGGLVQPGGSLRLSCAASGFTFSSYAMSWVRQAPGKGLVWVAEISRGGSHTYYPDTVTGRFTISRDNAKNTLYLQMNSLRAEDTAVYYCARSYGNYPFDYWGQGTTVTVSSASTKGPSVFPLAPSSKSTSGGTAALGCLVKDYFPEPVTVSWNSGALTSGVHTFPAVLQSSGLYSLSSVVTVPSSSLGTQTYICNVNHKPSNTKVDKRVEPKSCDKTHTCPPCPAPEFEGGPSVFLFPPKPKDTLMISRTPEVTCVVVDVSHEDPEVKFNWYVDGVEVHNAKTKPREEQYNSTYRVVSVLTVLHQDWLNGKEYKCKVSNKALPASIEKTISKAKGQPREPQVYTLPPCREEMTKNQVSLWCLVKGFYPSDIAVEWESNGQPENNYKTTPPVLDSDGSFFLYSKLTVDKSRWQQGNVFSCSVMHEALHNHYTQKSLSLSPGK
light: EIVLTQSPGTLSLSPGERATLSCRASQSVIGSYLAWYQQKPGQAPRLLIYSASKLASGIPDRFSGSGSGTDFTLTISRLEPEDFAVYYCQQDTRYPITFGQGTKVEIKRTVAAPSVFIFPPSDEQLKSGTASVVCLLNNFYPREAKVQWKVDNALQSGNSQESVTEQDSKDSTYSLSSTLTLSKADYEKHKVYACEVTHQGLSSPVTKSFNRGEC
notes: also called IL-36R×IL-1R3 common light chain bispecific antibody; R72B7/R1B9VH-h1+L36E9VK
In the case of B2, the “IC50 for inhibiting IL-36γ-induced hIL-8 secretion by human monocytes” value [3] is reported as 0.00171 nM, the Kd [4] is reported as 1.44 nM and the koff [4] is reported as 5.53e-05 s⁻¹. For the same binder, the kon [4] was 38400 M⁻¹ s⁻¹, the “IC50 for inhibiting IL-36α from inducing hIL-8 secretion by HaCAT cells” value (shortened to “IC50 for inhibiting IL-36α”) [5] was 0.00797 nM and the “IC50 for inhibiting IL-36β from inducing hIL-8 secretion by HaCAT cells” value (from here on “IC50 for inhibiting IL-36β”) [5] was 0.027 nM. The “IC50 for inhibiting IL-36γ from inducing hIL-8 secretion by HaCAT cells” value (“IC50 for inhibiting IL-36γ … by HaCAT cells” for short) [5] was 0.0453 nM, the “fold increase of activity by IC50 against Spesolimab, IL-36α, HaCAT hIL-8 secretion” value [6] was ~12 fold and the “fold increase of activity by IC50 against Spesolimab, IL-36β, HaCAT hIL-8 secretion” value [6] was ~4 fold. For the same binder, the “fold increase of activity by IC50 against Spesolimab, IL-36γ, HaCAT hIL-8 secretion” value [6] was ~15 fold, the “fold increase of activity by IC50 against Spesolimab, IL-36γ, hIL-8 secretion by human monocytes” value [6] was ~17 fold and the Kd [7] was 1.29 nM. For the same binder, the koff [7] was 3.98e-05 s⁻¹ and the kon [7] was 30700 M⁻¹ s⁻¹.

B3: R49E11VH-h3+L26B11VK (antibody, V domains shown)
VH: QVQLVQSGAEVKKPGASVKVSCKASGYSFTSSWIHWVRQAPGQGLEWMGEINPGSGRSNYNENFQGRVTMTVDTSISTAYMELSRLRSDDTAVYYCTVVFYGEPYFPFWGQGTLVTVSS
VL: EIVLTQSPGTLSLSPGERATLSCRASQSVIYSYLAWYQQKPGQAPRLLIYSASKRASGIPDRFSGSGSGTDFTLTISRLEPEDFAVYYCQQHAGIPVTFGQGTKVEIK
notes: Found as a Fab on phage; also called anti-human IL-36R monoclonal antibody; IL-36R monoclonal antibody
For B3, the “IC50 for inhibiting IL-36γ-induced hIL-8 secretion by human monocytes” value [3] was 0.0677 nM, the Kd [8] was 1.76 nM and the koff [8] was 6.83e-05 s⁻¹. The kon [8] was 38900 M⁻¹ s⁻¹, the “IC50 for inhibiting IL-36α” value [9] was 0.0533 nM and the “IC50 for inhibiting IL-36β” value [9] was 0.276 nM. The “IC50 for inhibiting IL-36γ … by HaCAT cells” value [9] was 1.9 nM, the “IC50 for inhibiting IL-36α” value [5] was 0.0559 nM and the “IC50 for inhibiting IL-36β” value [5] was 0.28 nM. For the same binder, the “IC50 for inhibiting IL-36γ … by HaCAT cells” value [5] was 1.58 nM, the Kd [10] was 2.9 nM and the koff [10] was 6.63e-05 s⁻¹. For the same binder, the kon [10] was 22800 M⁻¹ s⁻¹.
